Target: soluble CD8αα (human)
Assay: SPR

Row | Substance | Kd
1 | soluble MR1-β2m-Ac-6-FP monomer (WT) (from UniProt Q95460 23-292; P61769 21-119) (complex) | 177 µM
2 | HLA-A*02:01-NLV monomer (WT) (from UniProt P61769 21-119) (peptide-MHC) | 228 µM

Reference: PMC9424912
